In PMC12150503 (Cell Communication and Signaling : CCS, 2025):
Positions count from the first letter of the chain named. Names may count otherwise. Each block holds one binder with its values, some of them ahead of it.

Target: T1, His-mouse IKKβ (purified) (mouse, UniProt O88351 1-757)
T1 sequence (looked up): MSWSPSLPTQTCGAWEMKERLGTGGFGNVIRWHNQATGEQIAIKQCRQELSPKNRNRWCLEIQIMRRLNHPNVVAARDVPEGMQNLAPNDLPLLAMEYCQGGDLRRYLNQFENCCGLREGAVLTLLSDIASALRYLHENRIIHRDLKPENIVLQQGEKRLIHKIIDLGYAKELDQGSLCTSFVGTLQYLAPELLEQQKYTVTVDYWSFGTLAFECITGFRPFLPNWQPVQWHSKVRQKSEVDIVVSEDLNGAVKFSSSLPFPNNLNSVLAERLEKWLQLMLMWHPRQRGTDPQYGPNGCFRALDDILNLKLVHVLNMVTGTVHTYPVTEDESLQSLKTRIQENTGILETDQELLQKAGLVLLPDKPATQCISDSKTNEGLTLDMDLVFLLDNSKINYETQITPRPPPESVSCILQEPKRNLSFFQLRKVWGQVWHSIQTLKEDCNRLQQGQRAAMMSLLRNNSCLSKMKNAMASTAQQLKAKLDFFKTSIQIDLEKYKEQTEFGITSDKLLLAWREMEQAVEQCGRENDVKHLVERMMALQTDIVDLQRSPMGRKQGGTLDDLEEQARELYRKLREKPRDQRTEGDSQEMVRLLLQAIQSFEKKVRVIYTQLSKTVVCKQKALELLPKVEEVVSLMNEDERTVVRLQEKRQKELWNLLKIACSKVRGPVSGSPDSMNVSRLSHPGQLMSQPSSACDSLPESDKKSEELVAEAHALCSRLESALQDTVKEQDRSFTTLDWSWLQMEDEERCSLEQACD
Assay: pull-down

binding result: binds
B1: GST-mouse RMP-WT (natural protein, UniProt Q3TLD5 1-531, looked up)
chain: MEPPSEPEPEPQPLAEASAAAPLRAPEVARLREEQEKVVTNCQEKIQHWEKVDNDYSALQERLRTLPDKLSYDVMVPFGPLAFMPGKLVHTNEVTVLLGDNWFAKCSAKQAVGLVEHRKEHVRKTIDDFKKVLKNFESRVEFTEDLQKMSDAAGDFVDIREEIKSDFEFKGKQRIAHKPHSKPKTSDIFEADFENGVKPKNTFDADELWARLEELERQEELLGELESKPDTVIANGEDRVSSEEEKEGADTGVNVVSPVTDSSAASSCKRRAGNAGLPNGQVNSLNYSVNGSNSYHSNKDDDEEEEDDDDDDDEDDDNESDHAISADNSIPTIYFSHTVEPKRVRINTGKNTTLKFSEKKEEAKRKRKSGAGSHATHELPAIKSPADIYRVFVDVVNGEYVPRKSILKSRSRENSVCSDTSESSAADVEDRRGLLRSTSSEEAVATEAGGSSLDELQENHPKKPLPSGVSEAFSGTVIEKEFLSPSLAPYSAIAHHALPTIPERKEVPSEVSEEPTKRVSKFRAARLQQRS

binding result: binds
B2: GST-mouse RMP-S439A (natural protein, UniProt Q3TLD5 1-531, looked up)
chain: B1 chain with S439A
